These are literature values, as cited in paper PMC3134471.

The target of this series is luteinizing hormone receptor (Homo sapiens) (UniProt P22888).
UniProt P22888, sequence (P22888 27-699): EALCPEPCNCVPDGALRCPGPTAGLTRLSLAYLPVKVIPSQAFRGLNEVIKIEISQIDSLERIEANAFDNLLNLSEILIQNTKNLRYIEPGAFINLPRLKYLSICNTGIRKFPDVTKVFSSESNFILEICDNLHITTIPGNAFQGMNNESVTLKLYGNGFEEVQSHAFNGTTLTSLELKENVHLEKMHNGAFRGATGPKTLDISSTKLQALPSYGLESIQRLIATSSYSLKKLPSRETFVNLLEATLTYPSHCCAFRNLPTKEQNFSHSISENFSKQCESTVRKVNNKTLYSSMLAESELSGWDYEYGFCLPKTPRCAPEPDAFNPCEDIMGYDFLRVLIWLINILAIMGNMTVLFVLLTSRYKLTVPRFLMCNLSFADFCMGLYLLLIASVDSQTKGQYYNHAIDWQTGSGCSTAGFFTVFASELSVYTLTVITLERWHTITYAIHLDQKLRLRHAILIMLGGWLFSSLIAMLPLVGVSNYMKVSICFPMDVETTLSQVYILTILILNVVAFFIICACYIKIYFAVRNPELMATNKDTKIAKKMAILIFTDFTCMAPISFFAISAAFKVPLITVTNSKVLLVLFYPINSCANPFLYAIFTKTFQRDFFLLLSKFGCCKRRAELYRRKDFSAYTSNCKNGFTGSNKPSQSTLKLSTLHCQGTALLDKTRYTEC

For the substance “human chorionic gonadotropin (from UniProt P01215)”, the dissociation constant (Kd) was 0.3 nM.
